From the DeepSol protein solubility set

Test: soluble on expression in E. coli; label from the status in PepcDB or PDB records

Sequence	soluble on expression in E. coli
MAEQRSNIMRLPPSGYRLHRFPPLAQPVAVDEEFGLDNQGWQESQVDIQQQLEAGFQQGLQQGHEEGLRQGIEQGKQQGLLDGQKEGFQKGFVSGEQAGKQGFLEAAKPVNDLFQALSRWQSEKEQQQRHMICELVQKVAQQVIRAELTLMPQQILALVDETLSAMPGKAETVTVHLNPQDLERITHINADLPKSWKLVANNELPIGGCQLVTDDAEADASCDSRLEACMDNVKQHLLDEVSIPQVESENELEHHHHHH	soluble
MDHPDPNKWADCVHCGMCLEACPTYELTGHEQQSPRGRVHLIKSVAEGKLEVNEAFADPVFTCLDCRACETACPADVEVGGLIEEARGQIRQALPLEHHHHHH	soluble
MSLCMEAVMNIGIYIYDEAEVLDFSGPFEVFSTAKRLGAGSWNVFLVSETLEPVKARGGFTVLPDYSFQNYPQIDLLIVVGGVHRNEMNKSNVLHWVASVDKHAKHIASVCTGAFILANAGLLKGLAVTTHWEDIPELKQRFPDLVVVEDKRWITASKYTTSGGISAGIDMSLFLVSKFHSQSHAELVAHQMEYNWQKCTEGGSHHHHHH	soluble
MLKRPIHLSHDFLAEVVDKSSVVVDATMGNGNDTAFLAQLAKKVYAFDVQEQAIRKTSERLAQLGLSNAELILAGHEAVDQYVTEPVRAAIFNLGYLPSADKSIITLPNTTLQALSKLLTLLMVGGRIAIMVYYGHDGGSLEKDALLDFVKQLDQRKVSAMLYQPLNQVNTPPFLIMLEKLADF	not soluble
MGLTTMGLTTMGLTTKGLTTMGLTTKGLTTKGLTTMGLTTKGFTTKGLTTMGVTTKGLTTMGLTTKGLTTKGLTTKGFTTKGLTTMGLATMGLTTKGLTTMGLTTMGLTTKGLTTKGLTTKGLTTKGLTTKGLTTMGLTTKGFTTKGLTTMGLTTMGLATMGLTTKGLTTMGLTTKGFITKGLTTMGLATMGLTTMGLTTKGLTTKGLTTKGLTTMGLTTKGFITKGLTTMGLATMGLTTMGLTTKGLTTMGLTTMGLTTKGLTTKGLTTKGLTTKGLTTKGLTTMGLTTKGFTTKGLTTMGLATMGLATMGLTTMGLTTKGLTTKGLTTKGLTTKGLTTMGLTTKGFTTKGLTTMGLTTMGLTTKGLTTKGLTTKGLTTKGLTTMGLTTKGFTTKGLTTMGLATMGLTTKGLTTMGLTTKGFITKGLTTMGLATMGLTTMGLTTKGLTTKGLTTKGLTTMGLTTMGLTTMGLTTMGLTTMGLTTMGLTTMGLTTKGLTSQGVMDQAGVNRVEGEPINRLRTCEGKGNGRGDMQGVGNLGKALRGREDSLIVSSETRGFPRMGLWPGFPPIEYQGQVQSLE	not soluble
MALLDKLLTPVMNQYKQPINKCLKVLNKKNNKKTGVAKQNACMDKVWGQALAIITKQFVNKVCTAVAKKMNAKEWNCCKTYVVKVVNVTPYKRFNIVK	not soluble
MSATTTNLKEAIVNRRSIRKVTKNDAITKERIEEVLKTALHAPTSFNMQSGRMVVLMDGEHEKFWDIVKETLRARVPAENFEATVERLKGFHAGVGTVLFFEDQATVEKMQENAPLYKDQFPFWSHQGNAMLQHTVWMLLSAEGIGASLQHYNPIVDAEVKETWNIPAEWSLVGQMPFGEPNEQPAERTFLPTEDVVKFY	soluble
MAKIVLVLYDAGKHAADEEKLYGCTENKLGIANWLKDQGHELITTSDEEGGNSVLDQHIPDADIIITTPFHPAYITKERIDKAKKLKLVVVAGVGSDHIDLDYINQTGKKISVLEVTGSNVVSVAEHVVMTMLVLVRNFVPAHEQIINHDWEVAAIAKDAYDIEGKTIATIGAGRIGYRVLERLVPFNPKELLYYDYQALPKDAEEKVGARRVENIEELVAQADIVTVNAPLHAGTKGLINKELLSKFKKGAWLVNTARGAICVAEDVAAALESGQLRGYGGDVWFPQPAPKDHPWRDMRNKYGAGNAMTPHYSGTTLDAQTRYAQGTKNILESFFTGKFDYRPQDIILLNGEYVTKAYGKHDKK	soluble
MNPISRVAIIGECMVELKKHDGVLQQGFGGDTLNTAVYLSRLTKQHGVETSYVTGLGHDPFSREMLTAWREEGINTDMVYLSEDKLPGIYAIETAEDGERSFFYWRNDAAAKYWLRERALLSLVKDLCQHQMIYLSGISLAIISDDCRQMLIELLTMCRKEGVKIAFDNNFRPKLWPNIEQARDFYSKILSVTDMAFLTFDDEVMLWGDKHE	not soluble
MADLIARLREDGIQKRVIQEGRGELPDFQDGTKATFHFRTLHSDNEGSVIDDSRTRGKPMELIVGKKFKLPVWETIVCTMREGEIAQFLCDIKHVVLYPLVAKSLRNIAEGKDPLEGQRHCCGIAQMHEHSSLGHADLDALQQNPQPLIFHIEMLKVESPGTYQQDPWAMTDEEKAKAVPVIHQEGNRLYREGQVKEAAAKYYDAIACLKNLQMKEQPGSPDWIQLDLQITPLLLNYCQCKLVAQEYYEVLDHCSSILNKYDDNVKAYFKRGKAHAAVWNAQEAQADFAKVLELDPALAPVVSRELRALETRIRQKDEEDKARFRGIFSH	soluble
MNVETIREYCLSKKGVTESFPFDDVSLVMKVLDKMFALIDLEGANSISLKCDPERAIELREHYAGIEGAYHFNKKYWNGVYFDRDVDDKLIKELVDHSYEEVIKKFTKKLRAEYDALP	not soluble
MTMHREPGGERYYYTWAWFEGPDDAAWRVTGHHTDSGEQYRLDWNLAERSLCVTDSLGRTRCHWWDAQGLVTAYRDEAGQMTTFRWSDEERLLLGMTDAQGGKWRYVYDRLGHLTETHDPLGRVEQTQWHPVWHQPETEVDAAGAAWRYEYDERGNLQAVSDPLHQRTVYGYDRHGQVVRITDARGGDKYLQWNEDGQLMRHTDCSGSQTAWFYDERTRLERVTDAESNSTRYSYDGNGHLTEVMFADGRTERYQPDAAGRLVKYTSPAGQITRWQRDGQGRVRRQTDATGRRTAYEYDAYGRLTTLTNENGESYRFRYDVLDRLTEQTDPGGSRRAYGYNALNAVTAVIYGGERGGEIRHGLERDAAGRLTAKTTPETRTEYRYDAADRLLEIRRRRHDAAEGGEPEVIRFSYDSAGNLLSEETAQGVLQHRYDVQGNRTETQMPDGRTLRYLYYGSGHLQQINLGRDVISEFTRDHLHREVQRSQGRLDTRRMYDRTGRLTRKPTCKGMRGVVPETFIDREYAYSGQDELLKKRHSRQGVTDYFYDTTGRITACRNEAYLDSWQYDAAANLLDRRQGETAQAGAGSVVPFNRITSYRGLHYRYDEYGRVVEKRGRNGTQHYRWDAEHRLTEVAVIRGSTVRRYGYVYDAPGRRVEKHELDAEGKPYNRTTFLWDGMRLAQECRLGRSSSLYIYSDQGSHEPLARVDRAAPGEADEVLYYHTDVNGAPEEMTDGRGNIVWEAGYQVWGNLTHEKETRPVQQNLRFQGQYLDRETGLHYNLYRFYDPDIGKFISGDPISIRGGINLYQYAPNPIKWIDPLGLYNGEGQRELGKYHVFHEHNLDITEYGLSDAEHFSRGNQAIYERMKNDPAFRREMQTKYPGVVEHVQPSSGGKFSTESPPGLTWHHENKPGVLSLVDRLDHKTYHKIYHPLEHHHHHH	soluble
MVDQAQDTLRPNNRLSDMQATMEQTQAFENRVLERLNAGKTVRSFLITAVELLTEAVNLLVLQVFRKDDYAVKYAVEPLLDGDGPLGDLSVRLKLIYGLGVINRQEYEDAELLMALREELNHDGNEYAFTDDEILGPFGELHCVAALPPPPQFEPADSSLYAMQIQRYQQAVRSTMVLSLTELISKISLKKAFQK	soluble
MKNSLRIPRIIHQTWKTKDVPSPLDQLPQTWKEYLPNWEYILWTDEMNREFVCKHFPDFLEKYDTYPCNIQRADAIRYLLLKVYGGLYVDMDFECLENIEFLLEGSDFIVGKEPDWHAKRFGFEYIICNAFMASTPDNDFINFVCQRLINHSGGKVVNNGFDILDSTGPFLLTHAFNAFPHKEDIRILESKTIYPIGQWEVEKIKNNQIPKEMEERINQAHAIHYFFGTWFGKLEHHHHHH	not soluble
MGSDKIHHHHHHMNMKVLLVNPVGEWGGAEKIFFLVSQIFQKTGFELYVLLGSRGILYEKLRNLNFNISIMNFPDLSENSIVIAGRRFQLPHHLLKNLRKIKILSKKFWDYLRILKPDIIYLNNLRSLVLYYETVRTYGKPCEAVVIWHEHGYQRSIIRQLILDKIYLKFVDAVICVSKHLANKHLKDVQQKLYVVHNGIPDELNAIEKENVRYEYNNNKVLIIHPAFITYWKGQHLALKAVDLLVKRGVRNFEIWFFGEPRSKQDYKYFKKLKQFVRSKNLEKQVFFKGFSANIIDEMLKADIVISTSVEDDPFPTILLEASMIGKPVVTTDAGGSGEIVKNGETGFVVKKDKRELASALCELIQNKELRDVFSKNARDRFLKEFSILAFEKRFLETLESILRR	not soluble
MPPSLRKAVAAAIGGGAIAIASVLITGPSGNDGLEGVSYIPYKDIVGVWTVCHGHTGKDIMLGKTYTKAECKALLNKDLATVARQINPYIKVDIPETTRGALYSFVYNVGAGNFRTSTLLRKINQGDIKGACDQLRRWTYAGGKQWKGLMTRREIEREVCLWGQQ	not soluble
MAILKAQHLAKSYKKRKVVSDVSLQVESGQIVGLLGPNGAGKTTSFYMIVGLVARDEGTITIDDNDISILPMHSRSRMGIGYLPQEASIFRKLSVEDNIMAVLQTREELTHEERQDKLEDLLEEFHIQHIRKSAGMALSGGERRRVEIARALAANPQFILLDEPFAGVDPISVIDIKKIIEHLRDRGLGVLITDHNVRETLDVCEKAYIVSQGRLIAEGTPQDVLNNEQVKQVYLGEQFRL	not soluble
AARQMEALNRGLVAVKTDGGIFVSWRFLGTENASVLFNVYRDGQKLNAAPVKTTNYVDKNGSAGSTYTVRAVVNGTEQPASEKASVWAQPYHSVPLDKPAGGTTPKGESYTYSANDASVGDVDGDGQYELILKWDPSNSKDNSQDGYTGDVLIDAYKLDGTKLWRINLGKNIRAGAHYTQFMVYDLDGDGKAEVAMKTADGTKDGTGKVIGNANADYRNEQGRVLSGPEYLTVFQGSTGKELVTANFEPARGNVSDWGDSYGNRVDRFLAGIAYLDGQRPSLIMTRGYYAKTMLVAYNFRDGKLSKLWTLDSSKSGNEAFAGQGNHNLSIADVDGDGKDEIIFGSMAVDHDGKGMYSTGLGHGDALHTGDLDPGRPGLEVFQVHEDKNAKYGLSFRDAATGKILWGVYAGKDVGRGMAADIDPRYPGQEVWANGSLYSAKGVKIGSGVPSSTNFGIWWDGDLLREQLDSNRIDKWDYQNGVSKNMLTASGAAANNGTKATPTLQADLLGDWREEVVWRTEDSSALRIYTTTIPTEHRLYTLMHDPVYRLGIAWQNIAYNQPPHTSFFLGDGMAEQPKPNMYTPLEHHHHHH	soluble
MGSDKIHHHHHHMLKEAISYSIADESVRIVQVTDPHLFADPEAQLLGVNTSKSLAAVLNTIRAVNYPAHLLLATGDLSQDYSPESYRQFVSAVAPLNLPCHYLPGNHDDPRIMFLHMQGERVFGQQRILVGKWQILMLDSTVRGKPGGHMGEGQFELIEQAIAAHPEHHTLLVMHHNPILVNCAWLDQHCMDNGAEFLRRVAQYPQVKALLWGHVHQQLDTYYDGPHRALQLMATPSTCIQFKPQSPYFALDGLQPGYRLLELKADGSISTNVYRVPGNLFSPDKDSSGY	not soluble
ITEEEAKLFTEQLGDIIQFAEQLNELDTEGVEPTSHVLDMKNVLREDKPEKGLPVEDVLKNAPDHEDGQIR	not soluble
MFAPQGLAQFIKVNVTLENGEPVFIYTDANGQVCQGDITVTQAGTITYLLNDQTLKGLKFVGVGFVTPFDGIIDAVTISSDGMLVQLVDLDKTPGTTKFQFVLSNTANTLLVLSPDPQIINRPQN	soluble
MKLLFTSAFTQMFGYSNHMDQASNCQSTRNKIIKMMKKEEFPSGFQVPLHYPKYSKSDYEVMDDLRLDLLLKQYGFSFEGSLEDKRVFAIESFLWPDQL	soluble
